Measured values: publication PMC12079402 (Protein Science : A Publication of the Protein Society, 2025)

T1: ANAC046 intrinsically disordered region, ANAC046(172-338) (Arabidopsis thaliana, UniProt Q9SQQ6 172-338)
T1 sequence (looked up): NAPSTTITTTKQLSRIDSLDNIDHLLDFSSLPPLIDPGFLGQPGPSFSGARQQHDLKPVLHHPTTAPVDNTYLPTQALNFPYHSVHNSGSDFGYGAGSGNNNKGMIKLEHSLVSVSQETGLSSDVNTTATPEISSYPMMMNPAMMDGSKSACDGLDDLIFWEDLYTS

B1: ACID domain of MEDIATOR subunit 25 (MED25), MED25-ACID(532-680) (domain or fragment, Arabidopsis, UniProt Q7XYY2 532-680, looked up)
chain: SNSSAPNMQLSQPSSGAMQTSQSKYVKVWEGNLSGQRQGQPVLITRLEGYRSASASDSLAANWPPTMQIVRLISQDHMNNKQYVGKADFLVFRAMSQHGFLGQLQDKKLCAVIQLPSQTLLLSVSDKACRLIGMLFPGDMVVFKPQIPN
B2: RST domain of Radical-Induced Cell Death1 (RCD1), RCD1-RST(499-572) (domain or fragment, Arabidopsis, UniProt Q8RY59 499-572, looked up)
chain: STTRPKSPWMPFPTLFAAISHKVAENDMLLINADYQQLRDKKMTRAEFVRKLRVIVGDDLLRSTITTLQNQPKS
B3: TAZ1 domain of HAC1, HAC1-TAZ1(626-724) (domain or fragment, Arabidopsis, UniProt Q9C5X9 626-724, looked up)
chain: GNGNRDPRFKNQQKWLLFLRHARHCKAPEGKCPDRNCVTVQKLWKHMDSCAAPQCSYPRCLPTKTLINHHRSCKEPNCPVCIPVKAYLQQQANARSLAR
B4: ANAC046(300-338), fragment containing AD2/M5 with its context (domain or fragment, Arabidopsis thaliana, UniProt Q9SQQ6 300-338, looked up)
chain: ATPEISSYPMMMNPAMMDGSKSACDGLDDLIFWEDLYTS
B5: KIX domain of HAC1, HAC1-KIX(43-134) (domain or fragment, Arabidopsis, UniProt Q9C5X9 43-134, looked up)
chain: GPSRVSPVDNDILKLRQAMRIRIFNILQQKQPSPADEASKAKYMDVARRLEEGLFKIANTKEDYVNPSTLEPRLASLIKGRQLNNYNQRHAN
B6: ANAC046(172-222, S175W), fragment containing AD1/M1-2 (domain or fragment, Arabidopsis thaliana, UniProt Q9SQQ6 172-222, looked up)
chain: NAPWTTITTTKQLSRIDSLDNIDHLLDFSSLPPLIDPGFLGQPGPSFSGAR
B7: TAZ2 domain of HAC1, HAC1-TAZ2(1574-1697) (domain or fragment, Arabidopsis, UniProt Q9C5X9 1574-1697, looked up)
chain: NAQNKEARQLRVLQLRKMLDLLVHASQCRSAHCQYPNCRKVKGLFRHGINCKVRASGGCVLCKKMWYLLQLHARACKESECHVPRCRDLKEHLRRLQQQSDSRRRAAVMEMMRQRAAEVAGGSG

What was measured:
[1] = target: T1, ANAC046 intrinsically disordered …; assay: NMR titration
[2] = target: T1, ANAC046 intrinsically disordered …; assay: ITC
[3] = target: T1, ANAC046 intrinsically disordered …; assay: ITC; remark: listed apart in the source
[4] = target: B4; assay: ITC
[5] = target: B2; assay: ITC
[6] = target: B3; assay: ITC
[7] = target: B2; assay: NMR titration
[8] = target: B3; assay: NMR titration

B1: binds [1].

For B2, the Kd [2] was 0.2 µM and the dH [2] was -5.5 kcal/mol.

With B3 the “dH, site AD1/M1-2 (two-site fit)” value [3] was -15.5 kcal/mol, the “dH, site AD2/M5 (two-site fit)” value [3] was -5.98 kcal/mol and the dH [4] was -5.98 kcal/mol. For the same binder, the “stoichiometry N” value [4] was 0.97.

In the case of B4, the Kd [5] is reported as 0.12 µM, the dH [5] is reported as -7.41 kcal/mol and the “stoichiometry N” value [5] is reported as 0.8. For the same binder, the Kd [6] was 6 µM.

B5: binds [1].

B6 showed a Kd [7] of 148 µM and a Kd [8] of 112 µM.

B7: binds [1].
